{
  "source": "paper PMC9352680",
  "about": "“A comprehensive thermodynamic model for RNA binding by the Saccharomyces cerevisiae Pumilio protein PUF4”",
  "binders": {"B1": {"name": "Id_ii_S1_P3E.4_K3.3_C3.2_[C-2G]_H3.3_A3.1_F3.1_T3.2_[A10C] (ssRNA)", "RNA": "UCUCUUGUACACUAUAUCUCUCUU"}, "B2": {"name": "Id_ii_S1_P3E.4_K3.3_C3.2_[C-2A]_[T-1A]_H3.3_A3.1_F3.1_T3.2_[T9A] (ssRNA)", "RNA": "UCUCUUAAACACUAUAAAUCUCUU"}, "B3": {"name": "Id_ii_S1_P3E.4_K3.3_C3.2_[C-2A]_[T-1G]_H3.3_A3.1_F3.1_T3.2_[T9C] (ssRNA)", "RNA": "UCUCUUAGACACUAUACAUCUCUU"}, "B4": {"name": "Id_ii_S1_P3E.3_K3.2_C3.2_H3.2_A3.1_F3.1_T3.2_[T9C]_[A10T] (ssRNA)", "RNA": "UCUCUUCUUAUAUAUACUUCUCUU"}, "B5": {"name": "Id_ii_S1_P3E.4_K3.3_C3.2_[C-2A]_[T-1G]_H3.3_A3.1_F3.1_T3.2_[A10C] (ssRNA)", "RNA": "UCUCUUAGACACUAUAUCUCUCUU"}, "B6": {"name": "Id_ii_S1_P3E.4_K3.3_C3.2_[C-2T]_H3.3_A3.1_F3.1_T3.2_[T9C]_[A10T] (ssRNA)", "RNA": "UCUCUUUUACACUAUACUUCUCUU"}, "B7": {"name": "Id_ii_S1_P3E.4_K3.3_C3.2_[C-2A]_[T-1C]_H3.3_A3.1_F3.1_T3.2_[T9A]_[A10C] (ssRNA)", "RNA": "UCUCUUACACACUAUAACUCUCUU"}, "B8": {"name": "Id_ii_S1_P3E.4_K3.3_C3.2_[C-2T]_[T-1G]_H3.3_A3.1_F3.1_T3.2_[T9A]_[A10T] (ssRNA)", "RNA": "UCUCUUUGACACUAUAAUUCUCUU"}, "B9": {"name": "Id_ii_S1_P3E.4_K3.3_C3.2_[C-2A]_[T-1A]_H3.3_A3.1_F3.1_T3.2_[T9A]_[A10C] (ssRNA)", "RNA": "UCUCUUAAACACUAUAACUCUCUU"}, "B10": {"name": "Id_ii_S1_P3E.4_K3.3_C3.2_[C-2T]_[T-1G]_H3.3_A3.1_F3.1_T3.2_[T9A] (ssRNA)", "RNA": "UCUCUUUGACACUAUAAAUCUCUU"}, "B11": {"name": "Id_ii_S1_P3E.3_K3.2_C3.2_H3.2_A3.1_F3.1_T3.2 (ssRNA)", "RNA": "UCUCUUCUUAUAUAUAUAUCUCUU"}, "B12": {"name": "Id_ii_S1_P3E.4_K3.3_C3.2_[C-2T]_H3.3_A3.1_F3.1_T3.2_[T9A]_[A10G] (ssRNA)", "RNA": "UCUCUUUUACACUAUAAGUCUCUU"}, "B13": {"name": "Id_ii_S1_P3E.4_K3.3_C3.2_[C-2T]_[T-1G]_H3.3_A3.1_F3.1_T3.2_[T9C] (ssRNA)", "RNA": "UCUCUUUGACACUAUACAUCUCUU"}, "B14": {"name": "Id_ii_S1_P3E.4_K3.3_C3.2_[C-2G]_H3.3_A3.1_F3.1_T3.2_[T9A]_[A10T] (ssRNA)", "RNA": "UCUCUUGUACACUAUAAUUCUCUU"}, "B15": {"name": "Id_ii_S1_P3E.4_K3.3_C3.2_[C-2T]_H3.3_A3.1_F3.1_T3.2 (ssRNA)", "RNA": "UCUCUUUUACACUAUAUAUCUCUU"}, "B16": {"name": "Id_ii_S1_P3E.4_K3.3_C3.2_[C-2A]_H3.3_A3.1_F3.1_T3.2_[T9C]_[A10G] (ssRNA)", "RNA": "UCUCUUAUACACUAUACGUCUCUU"}, "B17": {"name": "Ib_S1_P4E.1_K4.1_C4.1_H4.1_[G2T]_A4.1_[A6T]_F4.1_T4.1 (ssRNA)", "RNA": "UCUCUUUUUAUUUUAUCUCUU"}, "B18": {"name": "Id_ii_S1_P3E.4_K3.3_C3.2_[C-2A]_[T-1G]_H3.3_A3.1_F3.1_T3.2_[T9A] (ssRNA)", "RNA": "UCUCUUAGACACUAUAAAUCUCUU"}, "B19": {"name": "Ia_S1_P4E.1_K4.1_C4.1_H4.1_A4.1_[T7G]_F4.1_T4.1 (ssRNA)", "RNA": "UCUCUUUGUAUAGUAUCUCUU"}, "B20": {"name": "Id_ii_S1_P3E.4_K3.3_C3.2_[C-2A]_[T-1C]_H3.3_A3.1_F3.1_T3.2_[T9G] (ssRNA)", "RNA": "UCUCUUACACACUAUAGAUCUCUU"}, "B21": {"name": "Id_ii_S1_P3E.4_K3.3_C3.2_[C-2T]_[T-1C]_H3.3_A3.1_F3.1_T3.2_[T9C]_[A10C] (ssRNA)", "RNA": "UCUCUUUCACACUAUACCUCUCUU"}, "B22": {"name": "Id_ii_S1_P3E.4_K3.3_C3.2_[C-2A]_H3.3_A3.1_F3.1_T3.2_[T9C]_[A10T] (ssRNA)", "RNA": "UCUCUUAUACACUAUACUUCUCUU"}, "B23": {"name": "Id_ii_S1_P3E.4_K3.3_C3.2_[C-2G]_H3.3_A3.1_F3.1_T3.2 (ssRNA)", "RNA": "UCUCUUGUACACUAUAUAUCUCUU"}, "B24": {"name": "Id_ii_S1_P3E.4_K3.3_C3.2_[C-2G]_[T-1C]_H3.3_A3.1_F3.1_T3.2_[T9C] (ssRNA)", "RNA": "UCUCUUGCACACUAUACAUCUCUU"}, "B25": {"name": "Id_ii_S1_P3E.4_K3.3_C3.2_[C-2A]_[T-1G]_H3.3_A3.1_F3.1_T3.2_[T9C]_[A10C] (ssRNA)", "RNA": "UCUCUUAGACACUAUACCUCUCUU"}, "B26": {"name": "Id_ii_S1_P3E.4_K3.3_C3.2_[C-2G]_[T-1C]_H3.3_A3.1_F3.1_T3.2_[T9A]_[A10C] (ssRNA)", "RNA": "UCUCUUGCACACUAUAACUCUCUU"}, "B27": {"name": "Id_ii_S1_P3E.4_K3.3_C3.2_[C-2T]_H3.3_A3.1_F3.1_T3.2_[T9C]_[A10G] (ssRNA)", "RNA": "UCUCUUUUACACUAUACGUCUCUU"}, "B28": {"name": "Id_ii_S1_P3E.4_K3.3_C3.2_[C-2A]_H3.3_A3.1_F3.1_T3.2_[T9C] (ssRNA)", "RNA": "UCUCUUAUACACUAUACAUCUCUU"}, "B29": {"name": "Id_ii_S1_P3E.4_K3.3_C3.2_[C-2A]_[T-1A]_H3.3_A3.1_F3.1_T3.2_[T9C] (ssRNA)", "RNA": "UCUCUUAAACACUAUACAUCUCUU"}, "B30": {"name": "Id_ii_S1_P3E.4_K3.3_C3.2_[C-2A]_[T-1C]_H3.3_A3.1_F3.1_T3.2_[A10T] (ssRNA)", "RNA": "UCUCUUACACACUAUAUUUCUCUU"}, "B31": {"name": "Id_ii_S1_P3E.4_K3.3_C3.2_[C-2G]_H3.3_A3.1_F3.1_T3.2_[T9C]_[A10C] (ssRNA)", "RNA": "UCUCUUGUACACUAUACCUCUCUU"}, "B32": {"name": "Id_ii_S1_P3E.4_K3.3_C3.2_[C-2G]_[T-1C]_H3.3_A3.1_F3.1_T3.2_[T9C]_[A10T] (ssRNA)", "RNA": "UCUCUUGCACACUAUACUUCUCUU"}},
  "data": [
    {"molecular_target": "T1, PUF4 RNA-binding domain (Saccharomyces cerevisiae, UniProt P25339 537-888)", "T1 sequence": "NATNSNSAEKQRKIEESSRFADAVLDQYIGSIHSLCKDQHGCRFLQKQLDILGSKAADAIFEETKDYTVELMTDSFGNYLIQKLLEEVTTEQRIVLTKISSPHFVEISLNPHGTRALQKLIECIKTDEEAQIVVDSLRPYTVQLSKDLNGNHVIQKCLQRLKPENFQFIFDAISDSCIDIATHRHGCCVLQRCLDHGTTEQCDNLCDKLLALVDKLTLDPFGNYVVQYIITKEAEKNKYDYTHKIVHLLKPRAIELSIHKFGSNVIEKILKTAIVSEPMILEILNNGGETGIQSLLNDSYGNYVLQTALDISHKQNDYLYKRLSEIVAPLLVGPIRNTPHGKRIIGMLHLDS", "assay": "Mg; RNA-MaP; 20 mM Na-HEPES pH 7.4, 30 mM KOAc, 0.75 mM MgCl2, 0.1% Tween-20, 5% glycerol, 0.1 mg/mL BSA, 2 mM DTT; 25 C; 0.0125-409.6 nM protein", "conditions": "tags: N-His6-TEV cleaved; C-SNAP kept, Cy3B-labelled; label: tethered on chip by stalled RNA polymerase", "units": {"Kd": "nM"}, "values": [
      {"binder": "B1", "Kd": 0.836},
      {"binder": "B2", "Kd": "> 2300"},
      {"binder": "B3", "Kd": "> 2300"},
      {"binder": "B4", "Kd": 634},
      {"binder": "B5", "Kd": "> 2300"},
      {"binder": "B6", "Kd": 1220},
      {"binder": "B7", "Kd": "> 2300"},
      {"binder": "B8", "Kd": "> 2300"},
      {"binder": "B9", "Kd": "> 2300"},
      {"binder": "B10", "Kd": "> 2300"},
      {"binder": "B11", "Kd": 394},
      {"binder": "B12", "Kd": 1520},
      {"binder": "B13", "Kd": "> 2300"},
      {"binder": "B14", "Kd": 1.16},
      {"binder": "B15", "Kd": 1030},
      {"binder": "B16", "Kd": 74.5},
      {"binder": "B17", "Kd": "> 2300"},
      {"binder": "B18", "Kd": "> 2300"},
      {"binder": "B19", "Kd": 2.25},
      {"binder": "B20", "Kd": "> 2300"},
      {"binder": "B21", "Kd": "> 2300"},
      {"binder": "B22", "Kd": 36.1},
      {"binder": "B23", "Kd": 0.819},
      {"binder": "B24", "Kd": 275},
      {"binder": "B25", "Kd": "> 2300"},
      {"binder": "B26", "Kd": 110},
      {"binder": "B27", "Kd": 2060},
      {"binder": "B28", "Kd": 34.9},
      {"binder": "B29", "Kd": "> 2300"},
      {"binder": "B30", "Kd": "> 2300"},
      {"binder": "B31", "Kd": 0.984},
      {"binder": "B32", "Kd": 122}
    ]}
  ]
}
